Sequences and labels used below:
B2: placental growth factor (PlGF)-2 (ligand, human, UniProt P49763-3 19-170, looked up)
chain: LPAVPPQQWALSAGNGSSEVEVVPFQEVWGRSYCRALERLVDVVSEYPSEVEHMFSPSCVSLLRCTGCCGDENLHCVPVETANVTMQLLKIRSGDRPSYVELTFSQHVRCECRPLREKMKPERRRPKGRGKRRREKQRPTDCHLCGDAVPRR
notes: placenta growth factor, form PlGF-2, human, bought in its mature form; source: bought: PeproTech; produced in Escherichia coli
B5: platelet-derived growth factor PDGF-BB (ligand, human, UniProt P01127 82-190, looked up)
chain: SLGSLTIAEPAMIAECKTRTEVFEISRRLIDRTNANFLVWPPCVEVQRCSGCCNNRNVQCRPTQVQLRPVQVRKIEIVRKKPIFKKATVTLEDHLACKCETVAAARPVT
notes: platelet-derived growth factor subunit B, human, bought in its mature form; a homodimer by its name; source: bought: PeproTech; produced in Escherichia coli

What all share (conditions): both partners purified
Assay [1] deals with T1, recombinant human syndecan-2 (human, UniProt P34741 19-144).
T1 construct: syndecan-2, human, recombinant; probably the extracellular domain; source: bought: SinoBiological
The assay is described as follows: ELISA; plates coated with laminin peptide (10 µg/mL by the legend, 1 μg/mL by the methods); 1 μg/mL His-tagged syndecan added; detected with anti-histidine tag antibody; BSA-coated wells as control. In general terms: ELISA stands for enzyme-linked immunosorbent assay.

The target in assay [2] is T2, recombinant human syndecan-4 (human, UniProt P31431 19-145).
T2 construct: syndecan-4, human, recombinant; probably the extracellular domain; source: bought: SinoBiological
T2 sequence (looked up): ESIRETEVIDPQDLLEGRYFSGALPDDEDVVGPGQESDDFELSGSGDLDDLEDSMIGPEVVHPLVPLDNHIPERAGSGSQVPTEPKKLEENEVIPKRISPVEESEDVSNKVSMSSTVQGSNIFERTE
The assay is described as above.

Assay [3] deals with T3, recombinant human syndecan-1 (human, UniProt P18827 23-254).
T3 construct: syndecan-1, human, recombinant; probably the extracellular domain; source: bought: SinoBiological
T3 sequence (looked up): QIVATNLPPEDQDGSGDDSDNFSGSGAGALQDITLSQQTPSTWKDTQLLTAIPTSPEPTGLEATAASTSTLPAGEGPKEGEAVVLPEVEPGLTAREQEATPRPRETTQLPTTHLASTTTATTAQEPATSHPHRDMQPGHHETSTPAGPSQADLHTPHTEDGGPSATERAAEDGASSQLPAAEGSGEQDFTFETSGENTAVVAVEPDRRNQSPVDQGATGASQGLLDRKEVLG
Described as above.

Assay [4] concerns the target B2. The assay is described as follows: ELISA; plates coated with laminin peptide (10 µg/mL by the legend, 1 μg/mL by the methods); 1 μg/mL GF added; bound GF detected with an antibody for each GF; BSA-coated wells as control.
Assay [5] deals with B5. The description is as above.
The target of another assay is T4, FGF-2 (human, UniProt P09038 143-288).
T4 construct: fibroblast growth factor 2, human, bought in its mature form; source: bought: PeproTech; produced in Escherichia coli
Described as above.

Assay [6] concerns the target T5, recombinant laminin LAMA3_(2928–3150) protein (human, UniProt Q16787 2928-3150).
T5 construct: laminin subunit alpha-3, human, LG domain Ser2928-Cys3150 (linker domain and LG4 domain); also called laminin alpha 3 LG domain recombinant protein; source: HEK-293F, transfected, purified from culture medium (HisTrap, size-exclusion chromatography)
T5 sequence (looked up): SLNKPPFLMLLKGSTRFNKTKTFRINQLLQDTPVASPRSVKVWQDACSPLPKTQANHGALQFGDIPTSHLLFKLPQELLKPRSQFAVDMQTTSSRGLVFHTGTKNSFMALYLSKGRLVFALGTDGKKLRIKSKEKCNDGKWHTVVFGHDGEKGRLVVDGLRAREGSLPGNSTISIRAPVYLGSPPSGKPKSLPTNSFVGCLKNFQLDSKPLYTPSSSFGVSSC
The assay is described as follows: ELISA; plates coated with 1 μg/mL recombinant laminin LG domain; 1 μg/mL GF added; bound GF detected with an antibody for each GF; BSA-coated wells as control.

Assay [7] has as its target T6, recombinant human laminin-111 (human, UniProt P25391 18-3075; P07942 22-1786; P11047 34-1609).
T6 construct: laminin subunit alpha-1, human; chain told by the isoform's name; laminin subunit beta-1, human; laminin subunit gamma-1, human; source: bought: BioLamina (recombinant human, >95% purity); copies: + +
The assay can be described thus: ELISA; plates coated with 10 μg/mL laminin isoform; 1 μg/mL GF for 60 min at RT in the absence or presence of 10 μM heparin; bound GF detected with an antibody for each GF.

The target in assay [8] is T7, recombinant human laminin-211 (human, UniProt P24043 23-3122; P07942 22-1786; P11047 34-1609).
T7 construct: laminin subunit alpha-2, human; chain told by the isoform's name; laminin subunit beta-1, human; laminin subunit gamma-1, human; source: bought: BioLamina (recombinant human, >95% purity); copies: + +
The description is as above.

In assay [9] the target is T8, recombinant human laminin-521 (human, UniProt O15230 36-3695; P55268 33-1798; P11047 34-1609).
T8 construct: laminin subunit alpha-5, human; chain told by the isoform's name; laminin subunit beta-2, human; laminin subunit gamma-1, human; also called laminin isoform-521; source: bought: BioLamina (recombinant human, >95% purity); copies: + +
The assay is described as follows: SPR; laminin-521 immobilised by amine coupling on a C1 chip (~2000 RU); GF flown at 20 μL/min in 0.01 M HEPES pH 7.4, 0.15 M NaCl, 0.005% surfactant P20; Langmuir binding kinetics.

Assay [10] addresses T6, recombinant human laminin-111. The assay is described as follows: ELISA; plates coated with 50 nM GF or chemokine in PBS; 10 nM laminin isoform in PBS added; bound laminin detected with anti-LAMC1 or anti-LAMA3 polyclonal antibody; A450 signals greater than 0.1 taken as binding; BSA-coated wells as control.
Assay [11] has as its target T7, recombinant human laminin-211. Described as above.
The target in assay [12] is T5, recombinant laminin LAMA3_(2928–3150) …. The assay is described as follows: SPR; LAMA3 2928–3150 immobilised by amine coupling on a C1 chip (~1000 RU); GF flown at 20 μL/min in 0.01 M HEPES pH 7.4, 0.15 M NaCl, 0.005% surfactant P20; Langmuir binding kinetics.

For orientation: Kd means the concentration at which binding is half-saturated.

T4 sequence (P09038 143-288): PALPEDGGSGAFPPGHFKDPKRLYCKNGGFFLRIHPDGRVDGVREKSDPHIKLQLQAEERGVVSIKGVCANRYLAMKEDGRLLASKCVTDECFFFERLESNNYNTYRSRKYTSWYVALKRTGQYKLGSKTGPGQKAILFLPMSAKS
T1 sequence (P34741 19-144): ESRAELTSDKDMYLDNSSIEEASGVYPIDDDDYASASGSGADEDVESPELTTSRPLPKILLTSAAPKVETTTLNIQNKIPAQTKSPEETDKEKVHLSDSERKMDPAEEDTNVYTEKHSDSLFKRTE

B1: laminin peptide LAMA5_(3417–3436) (peptide, UniProt O15230 3417-3436, looked up)
peptide: RQRSRPGRWHKVSVRWEKNR
notes: laminin subunit alpha-5, human, residues 3417-3436; source: synthetic peptide (Genscript)
For the molecule B1, the binding result (in assay [1]; in [2]; in assay [3]; in assay [4]; in assay [5]; in the assay with FGF-2) was “binds” each time.

Consider B2, for which the binding result in [6], in assay [7] and in assay [8] was “binds” each time. The Kd in [9] is 12.9 nM.

B3: laminin peptide LAMA5_(3539–3550) (peptide, UniProt O15230 3539-3550, looked up)
peptide: TLPDVGLELEVR
notes: laminin subunit alpha-5, human, residues 3539-3550; source: synthetic peptide (Genscript)
For the molecule B3, the binding result (in [4]; in [5]; with FGF-2) was “binds” throughout.

B4: laminin peptide LAMA5_(3300–3330) (peptide, UniProt O15230 3300-3330, looked up)
peptide: TPGLGPRGLQATARKASRRSRQPARHPACML
notes: laminin subunit alpha-5, human, residues 3300-3330, from the LG3-LG4 linker; source: synthetic peptide (Genscript)
Regarding B4, the binding result in [1], in assay [2], in [3] and in assay [4] was “binds” each time.

B5: the binding result in assay [10] and in assay [11] was “binds” each time. Also, the results for the Kd in [9] and in assay [12] were 24.2 nM and 10.2 nM, respectively.

B6: laminin peptide LAMA3_(3043–3067) (peptide, UniProt Q16787 3043-3067, looked up)
peptide: RLVFALGTDGKKLRIKSKEKCNDGK
notes: laminin subunit alpha-3, human, residues 3043-3067; also called laminin HBD peptide; source: synthetic peptide (Genscript)
On to B6, for which the binding result (in assay [1]; in assay [2]; in assay [3]; in [4]; in assay [5]; with FGF-2) was “binds” throughout.

For the origin of these results see paper PMC5986797, “Laminin heparin-binding peptides bind to several growth factors and enhance diabetic wound healing” (Nature Communications, 2018).
